Biological target: the molecule itself
Assay: cryo-EM structure; GP64 solubilised from purified BV particles with DDM/CHS, SEC fraction B in TN buffer (50 mM Tris-HCl pH 8, 150 mM NaCl) with 0.02% DDM and 0.002% CHS, about 1 mg/mL; single-particle reconstruction (7913 particles, 15 Å); prefusion GP64 model PDB 8YG6 fitted into the map

B1: GP64 envelope fusion protein of Autographa californica multiple nucleopolyhedrovirus (AcMNPV) (natural protein)
chain: AEHCNAQMKTGPYKIKNLDITPPKETLQKDVEITIVETDYNENVIIGYKGYYQAYAYNGGSLDPNTRVEETMKTLNVGKEDLLMWSIRQQCEVGEELIDRWGSDSDDCFRDNEGRGQWVKGKELVKRQNNNHFAHHTCNKSWRCGISTSKMYSRLECQDDTDECQVYILDAEGNPINVTVDTVLHRDGVSMILKQKSTFTTRQIKAACLLIKDDKNNPESVTREHCLIDNDIYDLSKNTWNCKFNRCIKRKVEHRVKKRPPTWRHNVRAKYTEGDTATKGDLMHIQEELMYENDLLKMNIELMHAHINKLNNMLHDLIVSVAKVDERLIGNLMNNSVSSTFLSDDTFLLMPCTNPPAHTSNCYNNSIYKEGRWVANTDSSQCIDFSNYKELAIDDDVEFWIPTIGNTTYHDSWKDASGWSFIAQQKSNLITTMENTKFGGVGTSLSDITSMAEGELAAKLTSFMFGHVVNFVIILIVILFLYCMIRNRNRQY
notes: Native viral protein, no tag; also called prefusion GP64; Frac B; source: purified from recombinant AcMNPV budded virions produced in Sf9 cells (1% DDM / 0.1% CHS extraction, Superdex 200 SEC)
  stoichiometry N: 3

— article PMC12027964, “Centrifugation-Based Purification Protocol Optimization Enhances Structural Preservation of Nucleopolyhedrovirus Budded Virion Envelopes” (Insects, 2025)
